Assay results taken from patent US20110015124A1 (TEMPLE UNIVERSITY OF THE COMMOMWEALTH SYSTEM OF HIGHER …, published 2011).
Starred links: 1 amine or outer side, 2 acyl side, 3 side chain; linkers in the order of their positions; H or OH if unused. Non-standard residues stand in square brackets, D forms with d. Primed or numbered codes have the meaning given here. No end group written: not given here. Tyr(Me)″ = methylated tyrosine, COc1ccc(C[C@H](N[*:1])C(=O)[*:2])cc1; Tyr(3,5-I2) = N[C@@H](Cc1cc(I)c(O)c(I)c1)C(=O)O; dGla = N[C@H](CC(C(=O)O)C(=O)O)C(=O)O; Dap = NC[C@H](N)C(=O)O; βAla = NCCC(=O)O

Tests used:
[1] = biological target: leptin receptor (ObR) naturally expressed on MCF-7 and DU-45 cells (human) (UniProt P48357); assay: cell-based or functional assay
[2] = biological target: T1, leptin receptor (ObR) naturally expressed on MCF-7 and DU-45 cells (human, UniProt P48357 22-1165); assay: cell-based or functional assay
T1 sequence (looked up): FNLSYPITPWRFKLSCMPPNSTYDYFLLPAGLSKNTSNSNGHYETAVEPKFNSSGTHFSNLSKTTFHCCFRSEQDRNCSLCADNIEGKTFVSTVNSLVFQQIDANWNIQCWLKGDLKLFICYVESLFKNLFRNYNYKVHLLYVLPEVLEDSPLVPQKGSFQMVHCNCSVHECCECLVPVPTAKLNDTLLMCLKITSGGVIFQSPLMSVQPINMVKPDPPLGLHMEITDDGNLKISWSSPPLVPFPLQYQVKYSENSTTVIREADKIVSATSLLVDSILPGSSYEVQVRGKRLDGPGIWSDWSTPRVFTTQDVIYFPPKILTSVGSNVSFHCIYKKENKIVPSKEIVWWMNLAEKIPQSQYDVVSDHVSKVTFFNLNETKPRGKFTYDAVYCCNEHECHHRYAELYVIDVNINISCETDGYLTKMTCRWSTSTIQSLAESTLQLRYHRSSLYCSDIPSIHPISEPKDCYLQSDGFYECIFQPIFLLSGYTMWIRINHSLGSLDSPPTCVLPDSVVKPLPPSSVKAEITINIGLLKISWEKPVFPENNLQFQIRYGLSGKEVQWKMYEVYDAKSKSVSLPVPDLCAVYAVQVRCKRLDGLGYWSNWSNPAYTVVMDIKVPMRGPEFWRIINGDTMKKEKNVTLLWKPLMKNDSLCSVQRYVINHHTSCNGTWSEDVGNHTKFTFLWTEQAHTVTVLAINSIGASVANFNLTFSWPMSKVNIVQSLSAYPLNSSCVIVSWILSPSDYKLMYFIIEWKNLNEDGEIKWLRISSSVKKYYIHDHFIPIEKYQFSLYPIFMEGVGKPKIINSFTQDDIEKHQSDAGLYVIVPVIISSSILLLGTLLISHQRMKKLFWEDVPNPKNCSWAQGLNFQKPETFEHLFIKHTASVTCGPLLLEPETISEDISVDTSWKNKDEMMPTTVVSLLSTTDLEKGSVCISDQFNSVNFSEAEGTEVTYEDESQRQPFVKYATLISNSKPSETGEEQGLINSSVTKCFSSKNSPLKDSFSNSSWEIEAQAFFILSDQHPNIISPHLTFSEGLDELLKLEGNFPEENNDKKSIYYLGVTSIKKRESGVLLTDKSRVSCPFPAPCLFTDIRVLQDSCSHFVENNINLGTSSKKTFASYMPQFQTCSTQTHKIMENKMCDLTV

[3] = biological target: T1, leptin receptor (ObR) naturally …; assay: cell-based or functional assay; remark: listed apart in the source
[4] = biological target: T2, human IgG Fc-conjugated ObR extracellular domain (R&D Systems) (human, UniProt P48357 22-839); assay: ELISA-type solid-phase binding assay, peptide on plate, ObR-Fc in solution
T2 construct: extracellular domain; it was detected with an antibody specific for the N-terminus of human ObR; also called ObR extracellular fragment-human Fc chimera; extracellular domain of ObR; not shown: human IgG Fc
T2 sequence (looked up): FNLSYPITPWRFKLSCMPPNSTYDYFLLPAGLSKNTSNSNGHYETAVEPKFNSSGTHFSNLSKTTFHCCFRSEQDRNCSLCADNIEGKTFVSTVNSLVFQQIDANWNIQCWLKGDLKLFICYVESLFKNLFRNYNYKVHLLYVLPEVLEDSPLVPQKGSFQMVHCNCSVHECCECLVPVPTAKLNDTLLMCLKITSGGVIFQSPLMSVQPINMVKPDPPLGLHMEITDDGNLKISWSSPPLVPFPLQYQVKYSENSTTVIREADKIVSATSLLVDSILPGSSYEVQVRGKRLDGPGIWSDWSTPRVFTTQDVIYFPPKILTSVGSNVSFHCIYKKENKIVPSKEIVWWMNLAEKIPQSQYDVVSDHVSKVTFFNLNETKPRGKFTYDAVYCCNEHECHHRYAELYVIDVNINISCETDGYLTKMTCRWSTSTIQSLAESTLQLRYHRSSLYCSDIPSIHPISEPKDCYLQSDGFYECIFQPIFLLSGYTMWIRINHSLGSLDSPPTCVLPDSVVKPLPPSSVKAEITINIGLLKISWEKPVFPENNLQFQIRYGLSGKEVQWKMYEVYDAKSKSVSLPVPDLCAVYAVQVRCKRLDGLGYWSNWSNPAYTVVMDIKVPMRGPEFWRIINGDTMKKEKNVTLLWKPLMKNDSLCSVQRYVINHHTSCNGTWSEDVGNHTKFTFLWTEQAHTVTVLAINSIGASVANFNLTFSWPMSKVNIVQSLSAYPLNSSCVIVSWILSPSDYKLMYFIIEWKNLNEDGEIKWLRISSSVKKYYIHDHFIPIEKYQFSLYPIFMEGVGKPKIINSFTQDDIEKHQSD
Protocol: For dot-blot and ELISA assays, the leptin fragments were dissolved in electroblot transfer buffer (25 mM Tris and […] buffer containing 20% methanol) and were applied to either a nitrocellulose membrane or dried upon ELISA plates (Otvos, L., Jr., and Szendrei, G. I. (1996) Enzyme-linked immunosorbent assay of peptides. In: Neuropeptide Protocols (G. B. Irvine and C. H. Williams, eds.). Humana Press, Totowa, N.J., pp. 269-275). The solid surfaces were blocked with 5% BSA in a PBS-0.5% Tween 20 buffer (PBST) for 3 hours at room temperature and were subsequently incubated with 10 μg/mL solution of human IgG Fc-conjugated ObR extracellular domain (R&D Systems) dissolved in Tris-buffered saline-0.1% Tween 20 buffer (TBST) containing 1% bovine serum albumin (BSA) for 1 hour. A monoclonal goat antibody (Santa Cruz Biotechnology), specific for the N-terminus of human ObR, was added to the assay mixture, followed by addition of a horseradish peroxidase(HRP)-conjugated anti-goat IgG donkey antibody for the dot-blot assay, and HRP-conjugated anti-goat Fc mouse antibody for ELISA assay (used at a 1:15,000 dilution in PBST and 1% BSA). Between reagents, the solid surfaces were washed extensively with PBST. After washing with PBST, the membrane was treated with a chemiluminescence luminol oxidizer (NEN) for 1 min. […] Optical absorbance values were read at 490 nm using a microplate reader. […]

human leptin (R&D Systems) (from UniProt P41159 22-167)
MCF-7 cell growth (cell count, 5 days) [1]: 40%

B1: F2 peptide (peptide)
peptide: G[Tyr(3,5-I2)]ST[dGla]VV[dA]LSRL-NH2
modifications: N-terminus assumed
SMILES: CC(C)C[C@H](NC(=O)[C@H](CCCNC(=N)N)NC(=O)[C@H](CO)NC(=O)[C@H](CC(C)C)NC(=O)[C@@H](C)NC(=O)[C@@H](NC(=O)[C@@H](NC(=O)[C@@H](CC(C(=O)O)C(=O)O)NC(=O)[C@@H](NC(=O)[C@H](CO)NC(=O)[C@H](Cc1cc(I)c(O)c(I)c1)NC(=O)CN)[C@@H](C)O)C(C)C)C(C)C)C(N)=O
Relative stimulation (%) of MCF-7 cells, with 10 nM leptin [2]: -15%

B2: D12 peptide (peptide)
peptide: [Tyr(Me)″]ST[dGla]VV[dA]LSRL-NH2
modifications: N-terminus assumed
SMILES: COc1ccc(C[C@H](N)C(=O)N[C@@H](CO)C(=O)N[C@H](C(=O)N[C@H](CC(C(=O)O)C(=O)O)C(=O)N[C@H](C(=O)N[C@H](C(=O)N[C@H](C)C(=O)N[C@@H](CC(C)C)C(=O)N[C@@H](CO)C(=O)N[C@@H](CCCNC(=N)N)C(=O)N[C@@H](CC(C)C)C(N)=O)C(C)C)C(C)C)[C@@H](C)O)cc1
Relative stimulation (%) of MCF-7 cells, with 10 nM leptin [2]: -43%

B3: A4 peptide (peptide)
peptide: G[Tyr(3,5-I2)]STEVV[βAla]LSRL-NH2
modifications: N-terminus assumed
SMILES: CC(C)C[C@H](NC(=O)[C@H](CCCNC(=N)N)NC(=O)[C@H](CO)NC(=O)[C@H](CC(C)C)NC(=O)CCNC(=O)[C@@H](NC(=O)[C@@H](NC(=O)[C@H](CCC(=O)O)NC(=O)[C@@H](NC(=O)[C@H](CO)NC(=O)[C@H](Cc1cc(I)c(O)c(I)c1)NC(=O)CN)[C@@H](C)O)C(C)C)C(C)C)C(N)=O
Relative stimulation (%) of MCF-7 cells, with 10 nM leptin [2]: -10%

B4: A11 peptide (peptide)
peptide: [Tyr(Me)″]STEVV[βAla]LSRL-NH2
modifications: N-terminus assumed
SMILES: COc1ccc(C[C@H](N)C(=O)N[C@@H](CO)C(=O)N[C@H](C(=O)N[C@@H](CCC(=O)O)C(=O)N[C@H](C(=O)N[C@H](C(=O)NCCC(=O)N[C@@H](CC(C)C)C(=O)N[C@@H](CO)C(=O)N[C@@H](CCCNC(=N)N)C(=O)N[C@@H](CC(C)C)C(N)=O)C(C)C)C(C)C)[C@@H](C)O)cc1
Relative stimulation (%) of MCF-7 cells, with 10 nM leptin [2]: -3%

[Tyr(3,5-I2)]S(β‑D‑glucose)TEVVALSRL[Dap](Ac)-NH2 [E1Free glycopeptide]
EC50 estimated from ERK1/2 stimulation in MCF-7 cells [3]: 100 to 150 nM

B5: pyrrhocoricin (peptide, UniProt P37362 1-20, looked up)
peptide: VDKGSYLPRPTPPRPIYNRN
notes: Negative control peptide; also called negative control antibacterial peptide pyrrhocoricin
binding result [4]: no binding
